# Measured values as given in US20140087436.
# Where a chain is given by its changes, count along the chain named.
# Experiments:
# Experiment in all cases: cell_activity
# [1] = molecular target: T1, CbbR A167V (Ralstonia eutropha) (UniProt P42722); conditions: beta-galactosidase, chemoheterotrophic; chemoautotrophic 7373
# T1 sequence: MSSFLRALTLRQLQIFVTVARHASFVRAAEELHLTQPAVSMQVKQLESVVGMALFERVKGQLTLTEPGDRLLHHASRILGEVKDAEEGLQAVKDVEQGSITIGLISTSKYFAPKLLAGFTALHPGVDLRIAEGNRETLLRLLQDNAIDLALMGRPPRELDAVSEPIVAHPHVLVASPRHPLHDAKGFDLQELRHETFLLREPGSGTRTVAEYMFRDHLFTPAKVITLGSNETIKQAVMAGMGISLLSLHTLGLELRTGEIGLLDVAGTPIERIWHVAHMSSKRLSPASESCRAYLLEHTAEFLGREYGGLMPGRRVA
# [2] = molecular target: T2, CbbR D144N (Ralstonia eutropha) (UniProt P42722); conditions: beta-galactosidase, chemoheterotrophic; chemoautotrophic 6932
# T2 sequence: T1 sequence with D144N, V167A
# [3] = molecular target: T3, CbbR G125D (Ralstonia eutropha) (UniProt P42722); conditions: beta-galactosidase, chemoheterotrophic; chemoautotrophic 6777
# T3 sequence: T1 sequence with G125D, V167A
# [4] = molecular target: T4, CbbR G125S/V265M (Ralstonia eutropha) (UniProt P42722); conditions: beta-galactosidase, chemoheterotrophic; chemoautotrophic 6770
# T4 sequence: T1 sequence with G125S, V167A, V265M
# [5] = molecular target: T5, CbbR G205D/G118D (Ralstonia eutropha) (UniProt P42722); conditions: beta-galactosidase, chemoheterotrophic; chemoautotrophic 3939
# T5 sequence: T1 sequence with G118D, V167A, G205D
# [6] = molecular target: T6, CbbR G205D/R283H (Ralstonia eutropha) (UniProt P42722); conditions: beta-galactosidase, chemoheterotrophic; chemoautotrophic 4480
# T6 sequence: T1 sequence with V167A, G205D, R283H
# [7] = molecular target: T7, CbbR P221S/T299I (Ralstonia eutropha) (UniProt P42722); conditions: beta-galactosidase, chemoheterotrophic; chemoautotrophic 5312
# T7 sequence: T1 sequence with V167A, P221S, T299I
# [8] = molecular target: T8, CbbR T232A (Ralstonia eutropha) (UniProt P42722); conditions: beta-galactosidase, chemoheterotrophic; chemoautotrophic 5269
# T8 sequence: T1 sequence with V167A, T232A
substance,measurement,setting,value
cbb promoter in lacZ reporter strain,activity,[1],768 nmol/min/mg
same,activity,[2],809 nmol/min/mg
same,activity,[3],108 nmol/min/mg
same,activity,[4],53 nmol/min/mg
same,activity,[5],1170 nmol/min/mg
same,activity,[6],2310 nmol/min/mg
same,activity,[7],655 nmol/min/mg
same,activity,[8],212 nmol/min/mg
